Legend:
[1] = target: T1, human CB2 (TRex CHO cells) (Homo sapiens, UniProt P34972); assay: Flow cytometry selectivity versus human CB2; format: binding
T1 construct: expressed in transfected cells
Procedure: (§1) To further assess TRex CHO parental cells, TRex CHO A56 overexpressed CB1, Native human CB1 TRex CHO A156, 5HT2B, Mouse CB1 and human CB2 were used to examine the specificity of IgG binding. 100 μl of 1×10^6 cells/ml of cells were incubated with primary antibody IgGs in 3-fold serial dilutions starting from 1 μM to 0.5 nM for 30 minutes on ice. After being washed with 200 μl of FACS buffer twice, cells were incubated with secondary antibody for 30 minutes on ice. Cells were washed with 200 μl of FACS buffer twice and transferred to BD Falcon 5 ml tube and analyzed by FACS.
(§2) Santa Cruz anti-CB1 rabbit polyclonal antibody and secondary antibody FITC conjugated anti-rabbit were used to detect the expression of mouse CB1. R&D mouse monoclonal anti-CB2 and human IgG P2C2 were used to confirm the expression of CB2 and 5HT2B respectively. Both anti-mouse and anti-human secondary antibodies were PE-conjugated.
For selected binders, full binding curves were generated on CB1 receptor by testing a range of concentrations. Three-fold serial dilutions from 1 μM to […] were prepared. Selectivity was determined by measuring binding to cells expressing 5HT2B or CB2, relative to binding to A156 (native human CB1 receptor expressing) or A56 (overexpressed—CB1 receptor with the T210A modification and ICL3 replacement with fusion partner) by flow cytometry. As shown in FIG. 2C and FIG. 2D, the expression of CB2 and 5HT2B was confirmed using mouse monoclonal anti-CB2 and P2C2 human IgG to confirm CB2 and 5HT2B expression, respectively. PE-conjugated anti-mouse (for detection of anti-CB2) and PE conjugated anti-human antibodies were used to detect CB2 and 5HT2B, respectively.
(§3) The binding affinity, cross-reactivity and specificity of humanized P1C4 antibodies were determined by flow cytometry with TRex CHO parental cells, TRex CHO A56 overexpressed CB1 cells (T210A/fusion partner), native human CB1 TRex CHO A156 cells, Trex parental (no CB1) cells, mouse CB1 cells, and human CB2 stable cells. […] After being washed with 200 μl of FACS buffer twice, cells were incubated with PE conjugated anti-human secondary antibody (Southern Biotech) for 30 minutes on ice. Cells were washed with 200 μl of FACS buffer twice and transferred to BD Falcon 5 ml tube and analyzed by flow cytometry (BD FACScalibur).
Binding selectivity and cross-reactivity of PA13R3-P1C4 and its humanized variants was also characterized by flow cytometry using TRex CHO cells stably transfected with the GPCRs of interest. Specifically, binding selectivity for CB1 over CB2 was determined. Cross reactivity to mouse CB1 was also determined. […] Cells were washed with 200 μL FACS buffer twice and analyzed by flow cytometry (Guava). Binding of purified IgG full concentration curves ranging from 1 μM to 1.3 nM was determined. […]

[2] = target: T2, Mouse CB1 (TRex CHO cells) (Mus musculus, UniProt P47746); assay: Flow cytometry cross-reactivity to mouse CB1; format: binding
T2 construct: expressed in transfected cells
Procedure: as §1, §2, §3
Binding selectivity and cross-reactivity of PA13R3-P1C4 and its humanized variants was also characterized by flow cytometry using TRex CHO cells stably transfected with the GPCRs of interest. Specifically, binding selectivity for CB1 over CB2 was determined. Cross reactivity to mouse CB1 was also determined. For detecting expression of mouse CB1, 100 μL of 1×10^6 cells/mL of cells were incubated with anti-CB1 rabbit polyclonal antibody (Santa Cruz) at 1 μg/100 μL on ice for 30 min. Mouse monoclonal anti-CB2 antibody from R&D Systems was used to confirm the expression of CB2. 100 μL of 1×10^6 cells/mL of cells were incubated with anti-CB2 antibody at 0.5 μg/100 μL on ice for 30 minutes. After incubation, cells were then centrifuged at 4° C. at 1600 rpm for 3 minutes; supernatant was aspirated and cells were washed with 200 μL FACS buffer. The procedure was repeated twice. […] Cells were washed with 200 μL FACS buffer twice and analyzed by flow cytometry (Guava). Binding of purified IgG full concentration curves ranging from 1 μM to 1.3 nM was determined. […]

[3] = target: T3, Native human CB1 TRex CHO A156 (Homo sapiens, UniProt P21554); assay: Flow cytometry (FACS) binding to native human CB1 cells
T3 construct: pcDNA4/TO native full length human CB1 receptor construct was transfected into tetracycline inducible system Trex-CHO cells; expressed in transfected cells
Procedure: (§4) TRex CHO parental cells, TRex CHO A56 over-expressed CB1 (CB1 T210A/fusion partner), and Native human CB1 TRex CHO A156 were harvested from flasks. 100 μl of 1×10^6 cells/ml of cells were incubated with primary antibody IgGs. Secondary Antibody PE conjugated anti-human and anti-mouse was diluted in 1:200 folds. Anti-Human Fab FITC was diluted in 1:32 folds. Cells were washed with 200 μl of FACS buffer twice and transferred to BD 5 ml Falcon tube and analyzed by flow cytometry. Binding of purified IgG was initially tested at concentrations of 30 nM and 300 nM.
as §1
(§5) For selected binders, full binding curves were generated on CB1 receptor by testing a range of concentrations. Three-fold serial dilutions from 1 μM to […] were prepared. Selectivity was determined by measuring binding to cells expressing 5HT2B or CB2, relative to binding to A156 (native human CB1 receptor expressing) or A56 (overexpressed—CB1 receptor with the T210A modification and ICL3 replacement with fusion partner) by flow cytometry. […]
(§6) The binding affinity, cross-reactivity and specificity of humanized P1C4 antibodies were determined by flow cytometry with TRex CHO parental cells, TRex CHO A56 overexpressed CB1 cells (T210A/fusion partner), native human CB1 TRex CHO A156 cells, Trex parental (no CB1) cells, mouse CB1 cells, and human CB2 stable cells. […] Cells were washed with 200 μl of FACS buffer twice and transferred to BD Falcon 5 ml tube and analyzed by flow cytometry (BD FACScalibur).

[4] = target: T4, TRex CHO A156 Native human CB1 cells (Homo sapiens, UniProt P21554); assay: Competition assay by FACS; format: binding; conditions: excess competitor; staining IgG at EC80 and EC50
T4 construct: pcDNA4/TO native full length human CB1 receptor construct was transfected into tetracycline inducible system Trex-CHO cells; expressed in transfected cells
Procedure: TRex CHO A156 Native human CB1 cells were used to test whether 36E12B6C2 and P1C4 bind to similar epitopes. Concentrations at EC80 and EC50 of P1C4 and 36E12B6C2 were used for staining. Excess of PA13R3-P1C4 IgG, Fab and 36E12B6C2 were used for competition. 100 μl of 1×10^6 cells/ml of A156 cells were incubated with competitor IgGs for 30 minutes on ice and then staining IgGs were added into the mixture with 30 minutes incubation on ice. After being washed with 200 μl of FACS buffer twice, cells were incubated with secondary antibody for 30 minutes on ice. PE conjugated anti-human and anti-mouse was diluted in 1:200 folds. Cells were washed with 200 μl of FACS buffer twice and transferred to BD Falcon 5 ml tube and analyzed by FACS.

[5] = system: TRex CHO A56 over-expressed CB1 (CB1 T210A/fusion partner); assay: Flow cytometry (FACS) binding to over-expressed CB1 cells; design: species or system human
Procedure: as §4, §1, §5, §6

| Molecule | cross-activity with human CB2 [1] | Kd TRexCHO Human CB2 ([1]; Table 10) | cross-activity with Mouse CB1 [2] | Kd TRexCHO Mouse CB1 ([2]; Table 10) | binding to A156 (in words) [3] | competition for CB1 binding [4] | binding to A56 (in words) [5] |
| --- | --- | --- | --- | --- | --- | --- | --- |
| PA13R3-P1C4: phage-derived chimeric anti-CB1 IgG; HC variable SEQ ID NO: 2, LC variable SEQ ID NO: 6 (antibody, V domains shown, PA13R3-P1C4 Heavy chain variable region; PA13R3-P1C4 Light chain variable region) VH: EVQLQQSGAELVRPGVSVKISCKASGYEFSYYWMNWVKQRPGQGLEWIGQIYPGDGETKYNGKFKGKATLTADKSSNTAYMQLSSLTSEDSAVYFCARSHGNYLPYWGQGTLVTVSA VL: DIVLTQSPAIMSASLGERVTMTCTASSSVSSSYLHWYQQKPGSSPKLWIYSTSNLASGVPARFSGSGSGTSYSLTISSMEAEDAATYYCHQYHRSPPTFGAGTKLELK | do not have cross-activity | No binding | do not have cross-activity | No binding | bind to both A56 and A156 | competed with 36E12B6C2 | bind to both A56 and A156 |
| PA13R3-P1C4 Fab: Fab fragment of chimeric PA13R3-P1C4 (antibody, V domains shown) VH: EVQLQQSGAELVRPGVSVKISCKASGYEFSYYWMNWVKQRPGQGLEWIGQIYPGDGETKYNGKFKGKATLTADKSSNTAYMQLSSLTSEDSAVYFCARSHGNYLPYWGQGTLVTVSA VL: DIVLTQSPAIMSASLGERVTMTCTASSSVSSSYLHWYQQKPGSSPKLWIYSTSNLASGVPARFSGSGSGTSYSLTISSMEAEDAATYYCHQYHRSPPTFGAGTKLELK | do not have cross-activity | – | do not have cross-activity | – | bind to both A56 and A156 | competed with 36E12B6C2 | bind to both A56 and A156 |
| 36E12B6C2: hybridoma-derived anti-CB1 mAb; HC variable SEQ ID NO: 18, LC variable SEQ ID NO: 22 (antibody, listed as Mus sp., V domains shown) VH: QVQLQQSGAELVRPGSSVKISCKASGYEFSYYWMNWVKQRPGQGLQWIGQIYPGDGDTNYNGKFKGKATLTADKSSSTAYMHLTSLTSEDSAVYFCARSGGNPFAFWGQGTLVTVSA VL: DIQMTQTSSSLSASLGDRVTFSCRASQDISNYLNWYQQKPDGTVKLLIYYTSRLHSGVTSRFRGSGSGTDYSLTISNLEQEDVATYFCQQGHTLPWSFGGGTKLEIK | do not have cross-activity | – | do not have cross-activity | – | bind to both A56 and A156 | could also compete with PA13R3-P1C4 | bind to both A56 and A156 |

From patent US11421026B2, “Antibodies that bind human cannabinoid 1 (CB1) receptor” (BIRD ROCK BIO, Inc., priority 2015, dated 2022)
